Assay results from article PMC10928148 (Molecular Therapy, 2024).

Experiments:
[1] = biological target: T1, receptor binding domain of the SARS-CoV-2 (Wuhan) Spike protein with C-terminal 6xHis-tag (Severe acute respiratory syndrome …, UniProt P0DTC2); experiment: SPR; details: both partners purified
[2] = biological target: T2, receptor binding domain of the SARS-CoV-2 (Wuhan) Spike protein with C-terminal 6xHis-tag (SARS-CoV-2 (Wuhan), UniProt P0DTC2); experiment: cell-based or functional assay
[3] = biological target: T2, receptor binding domain of the …; experiment: SPR; details: both partners purified
[4] = biological target: T1, receptor binding domain of the …; experiment: SPR; details: both partners purified; remark: listed apart in the source

B1: COVA2-15 monomeric IgA1 (antibody, V domains shown)
VH: QVQLLESGGGLVQPGGSLRLSCAASGFTFSSYAMSWVRQAPGKGLEWASAISGSGGSTYYADSVEGRFTISRDNSKNTLYLQMNSLRAEDTAVYYCAKDTGYCGDDCYIKLIRGGPDYWGQGTLVTVSS
VL: DIVMTQSPLSLPVTLGQPASISCRSSQSLVYSDGNTFLNWFQQRPGQSPRRLIYQVSNRDSGVPDRFSGSGSGTDFTLKISRVEAEDVGVYYCMQGTHWPRTFGQGTKLEIK
Q: What does the source list for B1?
A: Kd [1]: 1.43 nM; koff [1]: 0.00027 s⁻¹; kon [1]: 231000 M⁻¹ s⁻¹

B2: COVA2-15 IgG (antibody, V domains shown)
VH: QVQLLESGGGLVQPGGSLRLSCAASGFTFSSYAMSWVRQAPGKGLEWASAISGSGGSTYYADSVEGRFTISRDNSKNTLYLQMNSLRAEDTAVYYCAKDTGYCGDDCYIKLIRGGPDYWGQGTLVTVSS
VL: DIVMTQSPLSLPVTLGQPASISCRSSQSLVYSDGNTFLNWFQQRPGQSPRRLIYQVSNRDSGVPDRFSGSGSGTDFTLKISRVEAEDVGVYYCMQGTHWPRTFGQGTKLEIK
Q: How did the other [2] turn out when B2 was run?
A: Its other is 50 ng/mL.

Q: What about the Kd [3] of the same binder?
A: Its Kd is 0.74 nM.

Q: What about the koff [3] of the same binder?
A: Its koff is 0.00024 s⁻¹.

Q: What about the kon [3] of the same binder?
A: The kon was 333000 M⁻¹ s⁻¹.

B3: COVA2-15 monomeric IgA2 (antibody, V domains shown)
VH: QVQLLESGGGLVQPGGSLRLSCAASGFTFSSYAMSWVRQAPGKGLEWASAISGSGGSTYYADSVEGRFTISRDNSKNTLYLQMNSLRAEDTAVYYCAKDTGYCGDDCYIKLIRGGPDYWGQGTLVTVSS
VL: DIVMTQSPLSLPVTLGQPASISCRSSQSLVYSDGNTFLNWFQQRPGQSPRRLIYQVSNRDSGVPDRFSGSGSGTDFTLKISRVEAEDVGVYYCMQGTHWPRTFGQGTKLEIK
Q: B3 was tested. Which other [2] did it give?
A: Its other is 50 ng/mL.

B4: COVA2-15 monomeric IgA1 (antibody, V domains shown)
VH: QVQLLESGGGLVQPGGSLRLSCAASGFTFSSYAMSWVRQAPGKGLEWASAISGSGGSTYYADSVEGRFTISRDNSKNTLYLQMNSLRAEDTAVYYCAKDTGYCGDDCYIKLIRGGPDYWGQGTLVTVSS
VL: DIVMTQSPLSLPVTLGQPASISCRSSQSLVYSDGNTFLNWFQQRPGQSPRRLIYQVSNRDSGVPDRFSGSGSGTDFTLKISRVEAEDVGVYYCMQGTHWPRTFGQGTKLEIK
Q: With B4 as the binder, how does the other [2] read?
A: Its other is 50 ng/mL.

B5: COVA2-15 secretory IgA1 (antibody, V domains shown)
VH: QVQLLESGGGLVQPGGSLRLSCAASGFTFSSYAMSWVRQAPGKGLEWASAISGSGGSTYYADSVEGRFTISRDNSKNTLYLQMNSLRAEDTAVYYCAKDTGYCGDDCYIKLIRGGPDYWGQGTLVTVSS
VL: DIVMTQSPLSLPVTLGQPASISCRSSQSLVYSDGNTFLNWFQQRPGQSPRRLIYQVSNRDSGVPDRFSGSGSGTDFTLKISRVEAEDVGVYYCMQGTHWPRTFGQGTKLEIK
Q: B5 was tested. Which other [2] did it give?
A: The other was 13.5 ng/mL.

Q: And the Kd [3]?
A: Its Kd is 0.38 nM.

Q: And the koff [3]?
A: Its koff is 0.00016 s⁻¹.

Q: And the kon [3]?
A: The kon was 423000 M⁻¹ s⁻¹.

B6: COVA2-15 secretory IgA2 (antibody, V domains shown)
VH: QVQLLESGGGLVQPGGSLRLSCAASGFTFSSYAMSWVRQAPGKGLEWASAISGSGGSTYYADSVEGRFTISRDNSKNTLYLQMNSLRAEDTAVYYCAKDTGYCGDDCYIKLIRGGPDYWGQGTLVTVSS
VL: DIVMTQSPLSLPVTLGQPASISCRSSQSLVYSDGNTFLNWFQQRPGQSPRRLIYQVSNRDSGVPDRFSGSGSGTDFTLKISRVEAEDVGVYYCMQGTHWPRTFGQGTKLEIK
Q: B6 was tested. Which other [2] did it give?
A: Its other is 13.5 ng/mL.

Q: What about the Kd [3] of the same binder?
A: The Kd was 0.76 nM.

Q: What about the koff [3] of the same binder?
A: The koff was 0.00024 s⁻¹.

Q: What about the kon [3] of the same binder?
A: Its kon is 326000 M⁻¹ s⁻¹.

B7: COVA2-15 monomeric IgA2 (antibody, V domains shown)
VH: QVQLLESGGGLVQPGGSLRLSCAASGFTFSSYAMSWVRQAPGKGLEWASAISGSGGSTYYADSVEGRFTISRDNSKNTLYLQMNSLRAEDTAVYYCAKDTGYCGDDCYIKLIRGGPDYWGQGTLVTVSS
VL: DIVMTQSPLSLPVTLGQPASISCRSSQSLVYSDGNTFLNWFQQRPGQSPRRLIYQVSNRDSGVPDRFSGSGSGTDFTLKISRVEAEDVGVYYCMQGTHWPRTFGQGTKLEIK
Q: B7 was tested. Which Kd [1] did it give?
A: The Kd was 1.67 nM.

Q: What about the koff [1] of the same binder?
A: Its koff is 0.00035 s⁻¹.

Q: What about the kon [1] of the same binder?
A: The kon was 207000 M⁻¹ s⁻¹.

B8: 2-15 monomeric IgA1 (antibody, V domains shown)
VH: QVQLVQSGAEVKKPGASVRVSCKASGYTFTGYYMHWVRQAPGQGLEWMGWINPISDGTNYAQKFQGWVTMTRDTSISTVYMELSRLRSDDTAVYYCARGGSRCSGGNCYGWAYDAFDIWGQGTMITVSS
VL: QSALTQPASVSGSPGQSITISCTGTSSDVGGYNFVSWYQQHPGKAPKLMIYDVSKRPSGVSNRFSGSKSGNTASLTISGLQAEDEADCYCSSYTSSSTFVFGTGTKVTVL
Q: How did the Kd [4] turn out when B8 was run?
A: Its Kd is 3.75 nM.

B9: 2-15 IgG (antibody, V domains shown)
VH: QVQLVQSGAEVKKPGASVRVSCKASGYTFTGYYMHWVRQAPGQGLEWMGWINPISDGTNYAQKFQGWVTMTRDTSISTVYMELSRLRSDDTAVYYCARGGSRCSGGNCYGWAYDAFDIWGQGTMITVSS
VL: QSALTQPASVSGSPGQSITISCTGTSSDVGGYNFVSWYQQHPGKAPKLMIYDVSKRPSGVSNRFSGSKSGNTASLTISGLQAEDEADCYCSSYTSSSTFVFGTGTKVTVL
Q: How did the Kd [4] turn out when B9 was run?
A: The Kd was 1.16 nM.

B10: 2-15 monomeric IgA2 (antibody, V domains shown)
VH: QVQLVQSGAEVKKPGASVRVSCKASGYTFTGYYMHWVRQAPGQGLEWMGWINPISDGTNYAQKFQGWVTMTRDTSISTVYMELSRLRSDDTAVYYCARGGSRCSGGNCYGWAYDAFDIWGQGTMITVSS
VL: QSALTQPASVSGSPGQSITISCTGTSSDVGGYNFVSWYQQHPGKAPKLMIYDVSKRPSGVSNRFSGSKSGNTASLTISGLQAEDEADCYCSSYTSSSTFVFGTGTKVTVL
Q: How did the Kd [4] turn out when B10 was run?
A: The Kd was 2.88 nM.
